Results reported in US12240882B2, “Fusion proteins comprising an engineered knottin peptide and uses thereof” (The Board of Trustees of the Leland Stanford Junior …, priority 2010, dated 2025).
Substitutions are numbered along the chain they refer to. Names and notes keep the numbering of the source. “Also recorded” adds a separate entry of the source. Ends that are not written are not given here.

Experiments:
Met receptor = molecular target: T1, Met receptor (Homo sapiens, UniProt P08581); assay: Met receptor phosphorylation assay in PC3 cells; assay type: cell-based; conditions: 0.3 nM HGF, Western blot
T1 construct: PC3 cells express medium levels of the αvβ3 integrin and Met; endogenous in cells; host or cells: PC3 prostate cancer cells
Protocol: A Met receptor phosphorylation assay was performed in PC3 (prostate cancer cells). Met receptor phosphorylation was assayed by Western blot after stimulation with 0.3 nM HGF. […] (Note: PC3 cells express medium levels of the αvβ3 integrin and Met, and low levels of the α5β1 integrin).

HUVECs = assay: HUVEC proliferation assay stimulated with HGF; conditions: 0.5 nM HGF
U87MG cells = assay: Binding of AgRP mutant 7A to U87MG cells; conditions: read-out: KD against U87MG cells
Source text: (§1) The αvβ3 integrin receptor is over-expressed on many solid tumor cells making it an important cancer target. The Agouti related protein (AgRP), a cystine-knot peptide, contains four disulfide bonds and four solvent-exposed loops. It was engineered to target αvβ3 integrin receptors with pM binding affinity.

K562-αvβ3 cells = assay: Binding of AgRP mutant 7A to K562-αvβ3 cells; conditions: read-out: KD against K562-αvβ3 cells
Source text: as §1

αvβ3 integrin [1] = molecular target: T2, αvβ3 integrin (Homo sapiens, UniProt P05106+P06756); assay: cRGD competition of EETI 2.5D-Axl binding to K562-αvβ3 cells
[2] = Gel filtration chromatography of knottin-Fc; assay type: physicochemical
PC3 cells = assay: Inhibition of PC3 cell adhesion to vitronectin by knottin-Fc proteins; assay type: cell-based; conditions: knottin-Fc fusions, FIG. 10
Protocol: Negative control is an irrelevant protein.
In another tumor model, the ability of the knottin-Fc proteins to inhibit PC3 cell adhesion to the extracellular matrix (ECM) protein vitronectin was analyzed. […] As the inhibition of integrin-ECM adhesion induces caspase-mediated apoptosis, this biological mechanism will be explored in future studies.

sk0v3 cells = assay: Binding of knottin-Fc proteins to sk0v3 cells; conditions: measured against wild-type EETII-Fc
Protocol: The binding of the knottin-Fc proteins to tumor cell lines were then measured.

Gas6 [3] = molecular target: T3, Gas6 (Homo sapiens, UniProt Q14393); assay: Yeast surface display equilibrium binding to soluble Gas6; design: purchased R&D Systems
T3 sequence (Q14393 31-678): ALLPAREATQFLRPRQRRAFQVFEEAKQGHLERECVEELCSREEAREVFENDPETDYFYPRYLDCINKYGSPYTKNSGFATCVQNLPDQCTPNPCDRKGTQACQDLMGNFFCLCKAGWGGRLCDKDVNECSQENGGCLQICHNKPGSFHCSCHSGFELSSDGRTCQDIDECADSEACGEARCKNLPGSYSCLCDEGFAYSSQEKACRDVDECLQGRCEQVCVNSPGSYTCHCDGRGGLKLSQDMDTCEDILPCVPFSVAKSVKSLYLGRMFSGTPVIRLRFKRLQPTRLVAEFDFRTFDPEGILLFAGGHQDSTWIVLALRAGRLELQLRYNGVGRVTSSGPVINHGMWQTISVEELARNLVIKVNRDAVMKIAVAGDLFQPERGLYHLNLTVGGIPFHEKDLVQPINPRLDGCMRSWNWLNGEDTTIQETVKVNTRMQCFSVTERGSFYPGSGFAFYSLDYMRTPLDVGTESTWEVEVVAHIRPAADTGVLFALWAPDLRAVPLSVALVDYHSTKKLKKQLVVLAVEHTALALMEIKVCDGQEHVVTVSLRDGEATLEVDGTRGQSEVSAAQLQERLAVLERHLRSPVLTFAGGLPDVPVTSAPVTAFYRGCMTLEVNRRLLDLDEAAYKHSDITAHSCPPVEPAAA

Gas6 [4] = molecular target: T3, Gas6; assay: Equilibrium binding of engineered Axl Ig1 clones to Gas6; conditions: binding to Gas6, versus wild-type Axl Ig1
[5] = Melting temperature of engineered Axl Ig1 clone; conditions: versus wild-type Axl Ig1
Gas6 [6] = molecular target: T3, Gas6; assay: Yeast display binding of EETI 2.5D-Axl fusion to Gas6
αvβ3 integrin [7] = molecular target: T2, αvβ3 integrin; assay: Yeast display binding to αvβ3 integrin in presence of saturating Gas6; conditions: 100 or 200 nM αvβ3 integrin with 100 nM Gas6
[8] = circular dichroism
αvβ3 integrin [9] = molecular target: T2, αvβ3 integrin; assay: Yeast display binding of EETI 2.5D-Axl fusion to soluble αvβ3 integrin; conditions: 20, 50 or 100 nM αvβ3 integrin
αvβ3 integrin [10] = molecular target: T2, αvβ3 integrin; assay: Binding of soluble EETI 2.5D-Axl to K562-αvβ3 cells (flow cytometry); conditions: soluble protein from Pichia pastoris
Gas6 [11] = molecular target: T3, Gas6; assay: Yeast display binding to Gas6 in presence of saturating αvβ3 integrin; conditions: 20 or 100 nM Gas6 with 200 nM αvβ3 integrin

With “AgRP mutant, SEQ ID NO: 36 GCVRLHESCLGQQVPCCDPAATCYCSGRGDNDLVCYCR (ends and bridges not checked; cysteine pairing not given here) [AgRp7A]” the “inhibition of Met phosphorylation” value (Met receptor) was “did not show inhibition”, the “inhibitory effect on HUVEC proliferation” value (HUVECs) was “little inhibitory effect” and the Kd (U87MG cells) was 0.78 nM. It also gave a Kd (K562-αvβ3 cells) of 0.89 nM.

In the case of cRGD [reference compound], the “binding of EETI 2.5D-Axl to K562-αvβ3 cells with molar excess of cRGD” value (αvβ3 integrin [1]) is reported as “inhibits the binding”.

B1: 2.5D-Fc: EETI-based knottin 2.5D fused to Fc domain of mouse Ig2a (protein)
chain: GCPQGRGDWAPTSCKQDSDCRAGCVCGPNGFCGEPRGPTIKPCPPCKCPAPNLLGGPSVFIFPPKIKDVLMISLSPIVTCVVVDVSEDDPDVQISWFVNNVEVHTAQTQTHREDYNSTLRVVSALPIQHQDWMSGKEFKCKVNNKDLPAPIERTISKPKGSVRAPQVYVLPPPEEEMTKKQVTLTCMVTDFMPEDIYVEWTNNGKTELNYKNTEPVLDSDGSYFMYSKLRVEKKNWVERNSYSCSVVHEGLHNHHTTKSFSRTPGK
With B1 the tendency to aggregate [2] was “no tendency to aggregate” and the “inhibition of PC3 cell adhesion to vitronectin” value (PC3 cells) was “low nanomolar range”.

B2: 2.5F-Fc: EETI-based knottin 2.5F fused to Fc domain of mouse Ig2a (protein)
chain: B1 chain with Q4R, G5P, W9N, A10P, T12L, S13T, R21L
In the case of B2, the “affinity to sk0v3 cells” value (sk0v3 cells) is reported as “greater affinity” and the “inhibition of PC3 cell adhesion to vitronectin” value (PC3 cells) is reported as “low nanomolar range”.

B3: Wt EETI-Axl: Wild-type EETI-II fused to the Axl Ig1 N-terminus (protein)
chain: GCPRILMRCKQDSDCLAGCVCGPNGFCGSRGTQAEESPFVGNPGNITGARGLTGTLRCQLQVQGEPPEVHWLRDGQILELADSTQTQVPLGEDEQDDWIVVSQLRITSLQLSDTGQYQCLVFLGHQTFVSQPGYVGLEGLP
For B3, the “affinity / binding to Gas6” value (Gas6 [3]) was “same affinity as wild-type Axl”.

B4: Axl S6-1: engineered Axl Ig1, G32S, D87G, V92A, G127R, SEQ ID NO: 62 (protein)
chain: APRGTQAEESPFVSNPGNITGARGLTGTLRCQLQVQGEPPEVHWLRDGQILELADSTQTQVPLGEDEQGDWIVASQLRITSLQLSDTGQYQCLVFLGHQTFVSQPGYVRLEGLP
In the case of B4, the “fold improvement in equilibrium binding over wild-type” value (Gas6 [4]) is reported as 20 fold and the “improvement in melting temperature over wild-type” value [5] is reported as 13 °C.

B5: EETI 2.5D-Axl: EETI 2.5D directly fused to N-terminus of wt Axl Ig1 (amino acids 21-132), SEQ ID NO: 84 (protein)
chain: GCPQGRGDWAPTSCSQDSDCLAGCVCGPNGFCGSRGTQAEESPFVGNPGNITGARGLTGTLRCQLQVQGEPPEVHWLRDGQILELADSTQTQVPLGEDEQDDWIVVSQLRITSLQLSDTGQYQCLVFLGHQTFVSQPGYVGLEGLP
With B5 the “binding to Gas6” value (Gas6 [6]; 0.2, 2 or 20 nM Gas6) was “levels comparable to the mono-specific proteins; also recorded: affinities similar to its corresponding mono-specific components”, the “binding to Gas6” value (Gas6 [6]; 0.2, 2 or 20 nM Gas6, listed as 2.5D-Axl) was “maintained wild-type Axl's affinity” and the “binding to αvβ3 integrin in presence of saturating Gas6” value (αvβ3 integrin [7]) was “not affected; also recorded: is not lost”. The “binding to αvβ3 integrin in presence of saturating Gas6” value (αvβ3 integrin [7]; listed as 2.5D-Axl) was “the same as when they were measured individually”, the “Tm (° C.)” value [8] was 52 ± 0.7 °C and the “melting temperature (Tm)” value [8] was about 52 °C. For the same molecule, the “binding to soluble αvβ3 integrin” value (αvβ3 integrin [9]) was “levels comparable to the mono-specific proteins; also recorded: affinities similar to its corresponding mono-specific components”, the “binding to soluble αvβ3 integrin” value (αvβ3 integrin [9]; listed as 2.5D-Axl) was “matched that of 2.5D” and the “binding of EETI 2.5D-Axl to K562-αvβ3 cells with molar excess of cRGD” value (αvβ3 integrin [1]) was “binding specifically to αvβ3 integrin”. The “equilibrium binding to cells transfected to overexpress αvβ3 integrin” value (αvβ3 integrin [10]) was “consistent with that previously determined for 2.5D”, the “binding to Gas6 in presence of saturating αvβ3 integrin” value (Gas6 [11]) was “not affected; also recorded: maintains affinity to Gas6” and the “binding to Gas6 in presence of saturating αvβ3 integrin” value (Gas6 [11]; listed as 2.5D-Axl) was “the same as when they were measured individually”.

B6: AgRp7A-Aras4: AgRP 7A knottin fused to NK1 fragment of HGF (Aras4), SEQ ID NO: 66 (protein)
chain: DYKDDDDKPRGCVRLHESCLGQQVPCCDPAATCYCSGRGDNDLVCYCRYAEGQGKRRNTIHEFKKSAKTTLIKIDPALRIKTEKANTADQCANRCTRSKGLPFTCKAFVFDKARKRCLWFPFNSMSSGVKKEFGHEFDLYENKAYIRDCIIGRGRNYRGTVSITKSGIKCQPWSAMIPHEHSFLPSSYRGEDLRENYCRNPRGEEGGPWCYTSDPEVRYEVCDIPQCSEVETRHHHHHH
With B6 the “inhibition of Met phosphorylation” value (Met receptor) was “Dose dependent decreases; also recorded: slightly higher inhibitory effects”.
